Patent publication US20120184713

What was measured:
[1] = target: dephosphorylated alpha-Casein (Sigma)
[2] = target: T1, Fat2-3:FLAG (affinity-purified cadherin domains of Drosophila Fat), P33450
T1 chain: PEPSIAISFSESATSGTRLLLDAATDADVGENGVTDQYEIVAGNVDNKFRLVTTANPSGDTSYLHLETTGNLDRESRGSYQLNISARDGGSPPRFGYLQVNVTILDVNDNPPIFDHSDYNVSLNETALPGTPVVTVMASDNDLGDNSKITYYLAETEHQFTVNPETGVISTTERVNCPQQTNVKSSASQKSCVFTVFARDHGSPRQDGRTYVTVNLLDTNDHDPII

[3] = target: T2, Peptide1, OPN-ASARM peptide (human Osteopontin 115Asp to 132Leu with N-terminal Arg-Lys-Arg)
T2 chain: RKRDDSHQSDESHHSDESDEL

[4] = target: T3, DMP1:FLAG (FLAG epitope-tagged mouse dentin matrix protein 1, affinity purified), O55188
T3 chain: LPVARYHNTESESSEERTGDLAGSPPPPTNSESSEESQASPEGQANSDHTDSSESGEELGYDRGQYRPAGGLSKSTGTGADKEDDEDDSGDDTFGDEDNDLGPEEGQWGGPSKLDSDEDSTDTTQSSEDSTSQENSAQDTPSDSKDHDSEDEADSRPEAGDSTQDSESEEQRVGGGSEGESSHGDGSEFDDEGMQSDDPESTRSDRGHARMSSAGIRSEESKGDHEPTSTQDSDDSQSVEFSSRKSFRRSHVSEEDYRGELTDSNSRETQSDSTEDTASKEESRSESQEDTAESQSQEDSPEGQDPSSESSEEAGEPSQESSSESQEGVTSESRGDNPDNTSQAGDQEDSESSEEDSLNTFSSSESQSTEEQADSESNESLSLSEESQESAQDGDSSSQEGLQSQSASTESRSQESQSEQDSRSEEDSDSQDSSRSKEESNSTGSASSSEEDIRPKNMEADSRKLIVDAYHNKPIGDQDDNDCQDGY

[5] = target: T4, Peptide3, OPN-ASARM derivative with the three G-CK consensus Ser residues changed to Ala
T4 chain: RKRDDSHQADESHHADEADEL

[6] = target: OPN:FLAG (FLAG epitope-tagged mouse osteopontin, affinity purified), P10923
Sequence of OPN:FLAG (FLAG epitope-tagged mouse osteopontin, affinity purified), P10923 (P10923 17-294): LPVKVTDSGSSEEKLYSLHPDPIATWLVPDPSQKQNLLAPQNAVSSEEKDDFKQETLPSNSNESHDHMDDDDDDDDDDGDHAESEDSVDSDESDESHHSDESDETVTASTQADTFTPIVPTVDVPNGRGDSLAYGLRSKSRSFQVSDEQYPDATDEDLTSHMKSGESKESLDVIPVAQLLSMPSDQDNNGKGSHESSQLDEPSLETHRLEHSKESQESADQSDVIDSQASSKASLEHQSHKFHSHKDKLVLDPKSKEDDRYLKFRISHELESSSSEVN

[7] = target: Myelin Basic Protein (NEB)
[8] = target: T5, BSP:FLAG (FLAG epitope-tagged mouse bone sialoprotein, affinity purified), Q61711
T5 chain: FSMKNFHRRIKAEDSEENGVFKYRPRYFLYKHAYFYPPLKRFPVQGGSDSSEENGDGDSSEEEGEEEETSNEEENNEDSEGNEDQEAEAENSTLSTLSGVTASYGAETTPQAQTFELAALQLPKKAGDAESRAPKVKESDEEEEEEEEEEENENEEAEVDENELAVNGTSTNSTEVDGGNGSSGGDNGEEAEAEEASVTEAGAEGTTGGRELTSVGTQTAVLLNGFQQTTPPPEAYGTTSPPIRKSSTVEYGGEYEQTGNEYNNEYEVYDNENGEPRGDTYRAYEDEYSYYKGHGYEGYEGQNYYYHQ

[9] = target: T6, Peptide2, OPN-ASARM derivative with all five Ser residues replaced by Ala
T6 chain: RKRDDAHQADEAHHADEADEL

[10] = target: T7, Peptide4, OPN-ASARM derivative with the other two Ser residues changed to Ala
T7 chain: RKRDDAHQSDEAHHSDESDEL

B1: FAM20C:V5 (V5-epitope tagged mouse FAM20C, affinity purified from conditioned medium of HEK293T cells) (protein)
chain: DFSSDPASNLTSHSLEKLPSAAEPVDHAPRGQEPRSPPPRDPAHRPLLRDPGPRPRVPPPGPSGDGSLLAKLFEHPLYQGAVPPLTEDDVLFNVNSDIRFNPKAAENPDWPHEGAEGAEFLPTGEAAVNLYPNWLKFHIGINRYELYSRHNPAIDALLRDLGSQKITSVAMKSGGTQLKLIMTFQNYGQALFKPMKQTREQETPPDFFYFSDYERHNAEIAAFHLDRILDFRRVPPVAGRMINMTKEIRDVTRDKKLWRTFFVSPANNICFYGECSYYCSTEHALCGRPDQIEGSLAAFLPDLSLAKRKTWRNPWRRSYHKRKKAEWEVDPDYCEEVKQTPPYDSGHRILDIMDMTVFDFLMGNMDRHHYETFEKFGNETFIIHLDNGRGFGKYSHDELSILAPLHQCCRIRRSTYLRLQLLAKEEHKLSLLMAESLQHDKVAPVLYQLHLEALDRRLRIVLQAVRDCVEKDGLSSVVEDDLATEHRASTER
[1]
  Michaelis constant (Km), in vitro kinase assay: a Michaelis constant (Km) of FAM20C for Casein of 1.5 µM
  in vitro kinase assay (32P transfer): Dephosphorylated Casein was phosphorylated by purified FAM20C in vitro
[2]
  in vitro kinase assay (32P transfer): neither Myelin basic protein ... nor cadherin domains of Fat that are substrates for Fj, were detectably phosphorylated by FAM20C
[3]
  in vitro kinase assay with peptide substrate: In vitro kinase reactions confirmed that OPN-ASARM is a FAM20C substrate
[4]
  in vitro kinase assay (32P transfer): Transfer of ^32P onto OPN, BSP, and DMP1 was observed in the presence of FAM20C:V5
[5]
  in vitro kinase assay with peptide substrate: A peptide in which only the three G-CK concensus sites were changed to Ala (OPN-ASARM^3S-A) was phosphorylated much less effectively
[6]
  in vitro kinase assay (32P transfer): Transfer of ^32P onto OPN, BSP, and DMP1 was observed in the presence of FAM20C:V5
[7]
  in vitro kinase assay (32P transfer): neither Myelin basic protein ... nor cadherin domains of Fat ... were detectably phosphorylated by FAM20C
[8]
  in vitro kinase assay (32P transfer): Transfer of ^32P onto OPN, BSP, and DMP1 was observed in the presence of FAM20C:V5
[9]
  in vitro kinase assay with peptide substrate: a derivative with all five Ser residues replaced by Ala (OPN-ASARM^5S-A) was not phosphorylated
[10]
  in vitro kinase assay with peptide substrate: a derivative in which the other two Ser residues were changed to Ala (OPN-ASARM^2S-A) was still efficiently phosphorylated by FAM20C
